First the molecules themselves.
B1: Lysozyme C, P61626 (parent)
chain: MKALIVLGLVLLSVTVQGKVFERCELARTLKRLGMDGYRGISLANWMCLAKWESGYNTRATNYNAGDRSTDYGIFQINSRYWCNDGKTPGAVNACHLSCSALLQDNIADAVACAKRVVRDPQGIRAWVAWRNRCQNRDVRQYVQGCGV

Here are results for four variants from FireProtDB (doi:10.1093/protein/12.8.663).

Where “and” joins values, the source holds several entries; their conditions need not be identical. Equal entries are not always repeated.

Usually Tm stands for the temperature at the midpoint of the melting transition.

The first data set covers variants of B1. Particulars: Homo sapiens; pH 2.56; Thermal; DSC; glycine 0.05 M; reversible: yes; structure 1LZ1; whole UniProt chain shown.
As for MKALIVLGLVLLSVTVQGKVFERCELARTLKRLGMDGYRGISLANWMCLAKWESGYNTRATNYNAGDRSTDYGIFQINSRYWCNDGKTPGAVNACHLSCSALLQDNIADAVACMKRVVRDPQGIRAWVAWRNRCQNRDVRQYVQGCGV [A114M], the melting temperature (Tm) came to 62.5 °C, the “unfolding enthalpy (calorimetric)” value was determined as 95.1 kcal/mol and the “unfolding enthalpy (van 't Hoff)” value was 98 kcal/mol.
The corresponding values for MKALIVLGLVLLSVTVQGKVFERCELARTLKRLGMDGYRGISLANWMCLAKWLSGYNTRATNYNAGDRSTDYGIFQINSRYWCNDGKTPGAVNACHLSCSALLQDNIADAVACAKRVVRDPQGIRAWVAWRNRCQNRDVRQYVQGCGV [E53L] are 61.2 °C, 94.9 kcal/mol and 105 kcal/mol.

Staying with this data set, now noted: Homo sapiens; pH 2.7; 64.9 °C; Thermal; DSC; glycine 0.05 M; reversible: yes; structure 1LZ1; whole UniProt chain shown.
For the variant MKALIVLGLVLLSVTVQGKVFERCELARTLKRLGMDGYRGISLANWMCLAKWESGYNTRATNYNAGDRSTDYGIFQINSRYWCNDGKTPGAVNACHLSCSALLQDNIADAVACMKRVVRDPQGIRAWVAWRNRCQNRDVRQYVQGCGV [A114M], the “ddG of mutation (higher = less stable)” value was -0.02 kcal/mol.
On the same count and under the same terms, to MKALIVLGLVLLSVTVQGKVFERCELARTLKRLGMDGYRGISLANWMCLAKWESQYNTRATNYNAGDRSTDYGIFQINSRYWCNDGKTPGAVNACHLSCSALLQDNIADAVACAKRVVRDPQGIRAWVAWRNRCQNRDVRQYVQGCGV [G55Q] belongs 0.26 kcal/mol.
For the variant MKALIVLGLVLLSVTVQGKVFERCELARTLKRLGMDGYRGISLANWMCLAKWESGYNTRATNYNAGDRSTDYGIFQINSRYWCNDGKTPGAVNACGLSCSALLQDNIADAVACAKRVVRDPQGIRAWVAWRNRCQNRDVRQYVQGCGV [H96G], the “ddG of mutation (higher = less stable)” value worked out at 0.12 kcal/mol.
Still for that read-out and setting: under MKALIVLGLVLLSVTVQGKVFERCELARTLKRLGMDGYRGISLANWMCLAKWLSGYNTRATNYNAGDRSTDYGIFQINSRYWCNDGKTPGAVNACHLSCSALLQDNIADAVACAKRVVRDPQGIRAWVAWRNRCQNRDVRQYVQGCGV [E53L] stands 0.53 kcal/mol.

Staying with this data set, now noted: Homo sapiens; pH 2.7; Thermal; DSC; glycine 0.05 M; reversible: yes; structure 1LZ1; whole UniProt chain shown.
Regarding MKALIVLGLVLLSVTVQGKVFERCELARTLKRLGMDGYRGISLANWMCLAKWESGYNTRATNYNAGDRSTDYGIFQINSRYWCNDGKTPGAVNACHLSCSALLQDNIADAVACMKRVVRDPQGIRAWVAWRNRCQNRDVRQYVQGCGV [A114M], the Tm was 65 °C and 64.9 °C; the “change of melting temperature, mutant - wild type (higher = more stable)” value (shortened to “change of melting temperature, mutant”) was determined as 0.1 °C; the “heat capacity change of unfolding” value was determined as 1.31 kcal/mol/K; the “unfolding enthalpy (calorimetric)” value worked out at 98.7 kcal/mol.
Consider MKALIVLGLVLLSVTVQGKVFERCELARTLKRLGMDGYRGISLANWMCLAKWESQYNTRATNYNAGDRSTDYGIFQINSRYWCNDGKTPGAVNACHLSCSALLQDNIADAVACAKRVVRDPQGIRAWVAWRNRCQNRDVRQYVQGCGV [G55Q], for which the Tm was 64.1 °C and 64.9 °C; the “change of melting temperature, mutant” value is -0.8 °C; the “heat capacity change of unfolding” value is 1.15 kcal/mol/K; the “unfolding enthalpy (calorimetric)” value is 108 kcal/mol.
On to MKALIVLGLVLLSVTVQGKVFERCELARTLKRLGMDGYRGISLANWMCLAKWESGYNTRATNYNAGDRSTDYGIFQINSRYWCNDGKTPGAVNACGLSCSALLQDNIADAVACAKRVVRDPQGIRAWVAWRNRCQNRDVRQYVQGCGV [H96G], for which the Tm was 64.4 °C and 64.9 °C; the “change of melting temperature, mutant” value is -0.5 °C; the “heat capacity change of unfolding” value is 1.58 kcal/mol/K; the “unfolding enthalpy (calorimetric)” value is 109 kcal/mol.
MKALIVLGLVLLSVTVQGKVFERCELARTLKRLGMDGYRGISLANWMCLAKWLSGYNTRATNYNAGDRSTDYGIFQINSRYWCNDGKTPGAVNACHLSCSALLQDNIADAVACAKRVVRDPQGIRAWVAWRNRCQNRDVRQYVQGCGV [E53L]: the melting temperature (Tm) was 63.1 °C and 64.9 °C; the “change of melting temperature, mutant” value was -1.8 °C; the “heat capacity change of unfolding” value is 1.05 kcal/mol/K; the “unfolding enthalpy (calorimetric)” value was 99 kcal/mol.

The data set is the same for the next values; noted with them: Homo sapiens; pH 3.19; Thermal; DSC; glycine 0.05 M; reversible: yes; structure 1LZ1; whole UniProt chain shown.
For MKALIVLGLVLLSVTVQGKVFERCELARTLKRLGMDGYRGISLANWMCLAKWESGYNTRATNYNAGDRSTDYGIFQINSRYWCNDGKTPGAVNACHLSCSALLQDNIADAVACMKRVVRDPQGIRAWVAWRNRCQNRDVRQYVQGCGV [A114M], the Tm turned out to be 72.9 °C, the “unfolding enthalpy (calorimetric)” value turned out to be 109 kcal/mol and the “unfolding enthalpy (van 't Hoff)” value was 112 kcal/mol.

The data set is the same for the next values; noted with them: Homo sapiens; pH 2.48; Thermal; DSC; glycine 0.05 M; reversible: yes; structure 1LZ1; whole UniProt chain shown.
Turning to MKALIVLGLVLLSVTVQGKVFERCELARTLKRLGMDGYRGISLANWMCLAKWESQYNTRATNYNAGDRSTDYGIFQINSRYWCNDGKTPGAVNACHLSCSALLQDNIADAVACAKRVVRDPQGIRAWVAWRNRCQNRDVRQYVQGCGV [G55Q], the melting temperature (Tm) was determined as 60.7 °C, the “unfolding enthalpy (calorimetric)” value is 102 kcal/mol and the “unfolding enthalpy (van 't Hoff)” value was 108 kcal/mol.

Staying with this data set, now noted: Homo sapiens; pH 2.73; Thermal; DSC; glycine 0.05 M; reversible: yes; structure 1LZ1; whole UniProt chain shown.
As for MKALIVLGLVLLSVTVQGKVFERCELARTLKRLGMDGYRGISLANWMCLAKWESQYNTRATNYNAGDRSTDYGIFQINSRYWCNDGKTPGAVNACHLSCSALLQDNIADAVACAKRVVRDPQGIRAWVAWRNRCQNRDVRQYVQGCGV [G55Q], the melting temperature (Tm) turned out to be 64.5 °C, the “unfolding enthalpy (calorimetric)” value stood at 108 kcal/mol and the “unfolding enthalpy (van 't Hoff)” value was 111 kcal/mol.

Still in this data set, the particulars now being: Homo sapiens; pH 3.09; Thermal; DSC; glycine 0.05 M; reversible: yes; structure 1LZ1; whole UniProt chain shown.
Take MKALIVLGLVLLSVTVQGKVFERCELARTLKRLGMDGYRGISLANWMCLAKWESQYNTRATNYNAGDRSTDYGIFQINSRYWCNDGKTPGAVNACHLSCSALLQDNIADAVACAKRVVRDPQGIRAWVAWRNRCQNRDVRQYVQGCGV [G55Q]: the Tm was determined as 70.1 °C, the “unfolding enthalpy (calorimetric)” value turned out to be 113 kcal/mol and the “unfolding enthalpy (van 't Hoff)” value was determined as 118 kcal/mol.

The same data set, now with this note: Homo sapiens; pH 2.53; Thermal; DSC; glycine 0.05 M; reversible: yes; structure 1LZ1; whole UniProt chain shown.
In the case of MKALIVLGLVLLSVTVQGKVFERCELARTLKRLGMDGYRGISLANWMCLAKWESGYNTRATNYNAGDRSTDYGIFQINSRYWCNDGKTPGAVNACGLSCSALLQDNIADAVACAKRVVRDPQGIRAWVAWRNRCQNRDVRQYVQGCGV [H96G], the Tm was found to be 61.5 °C, the “unfolding enthalpy (calorimetric)” value was found to be 103 kcal/mol and the “unfolding enthalpy (van 't Hoff)” value is 108 kcal/mol.

The same data set, now with this note: Homo sapiens; pH 2.75; Thermal; DSC; glycine 0.05 M; reversible: yes; structure 1LZ1; whole UniProt chain shown.
Regarding MKALIVLGLVLLSVTVQGKVFERCELARTLKRLGMDGYRGISLANWMCLAKWESGYNTRATNYNAGDRSTDYGIFQINSRYWCNDGKTPGAVNACGLSCSALLQDNIADAVACAKRVVRDPQGIRAWVAWRNRCQNRDVRQYVQGCGV [H96G], the Tm was found to be 65.2 °C, the “unfolding enthalpy (calorimetric)” value was found to be 110 kcal/mol and the “unfolding enthalpy (van 't Hoff)” value was 112 kcal/mol.

Staying with this data set, now noted: Homo sapiens; pH 3.1; Thermal; DSC; glycine 0.05 M; reversible: yes; structure 1LZ1; whole UniProt chain shown.
Consider MKALIVLGLVLLSVTVQGKVFERCELARTLKRLGMDGYRGISLANWMCLAKWESGYNTRATNYNAGDRSTDYGIFQINSRYWCNDGKTPGAVNACGLSCSALLQDNIADAVACAKRVVRDPQGIRAWVAWRNRCQNRDVRQYVQGCGV [H96G], for which the Tm was found to be 71 °C, the “unfolding enthalpy (calorimetric)” value stood at 118 kcal/mol and the “unfolding enthalpy (van 't Hoff)” value is 120 kcal/mol.

Staying with this data set, now noted: Homo sapiens; pH 3.25; Thermal; DSC; glycine 0.05 M; reversible: yes; structure 1LZ1; whole UniProt chain shown.
For the variant MKALIVLGLVLLSVTVQGKVFERCELARTLKRLGMDGYRGISLANWMCLAKWLSGYNTRATNYNAGDRSTDYGIFQINSRYWCNDGKTPGAVNACHLSCSALLQDNIADAVACAKRVVRDPQGIRAWVAWRNRCQNRDVRQYVQGCGV [E53L], the Tm came to 70.8 °C, the “unfolding enthalpy (calorimetric)” value was found to be 105 kcal/mol and the “unfolding enthalpy (van 't Hoff)” value is 110 kcal/mol.
